Reference: the supplement of paper PMC11246515
± gives the standard deviation of the averaged measurements.

Assay: total protein half-life in vivo (active degradation + dilution); higher = more stable protein
[1] = E. coli NCM3722 delta-clpP delta-lon delta-hslV, growth: N-lim chemostat, doubling time 6 h
[2] = wild type E. coli NCM3722, growth: C-lim chemostat, doubling time 3 h
[3] = wild type E. coli NCM3722, growth: C-lim chemostat, doubling time 12 h
[4] = E. coli NCM3722 delta-lon, growth: N-lim chemostat, doubling time 6 h
[5] = E. coli NCM3722 delta-smpB, growth: N-lim chemostat, doubling time 6 h
[6] = wild type E. coli NCM3722, growth: C-lim chemostat, doubling time 6 h
[7] = wild type E. coli NCM3722, growth: P-lim chemostat, doubling time 12 h
[8] = wild type E. coli NCM3722, growth: P-lim chemostat, doubling time 6 h
[9] = E. coli NCM3722 delta-clpP, growth: N-lim chemostat, doubling time 6 h
[10] = E. coli NCM3722 delta-hslV, growth: N-lim chemostat, doubling time 6 h
[11] = wild type E. coli NCM3722, growth: N-lim chemostat, doubling time 6 h
[12] = wild type E. coli NCM3722, growth: N-lim chemostat, doubling time 12 h

| Sequence | total protein half-life in vivo [1] [h] | total protein half-life in vivo [2] [h] | total protein half-life in vivo [3] [h] | total protein half-life in vivo [4] [h] | total protein half-life in vivo [5] [h] | total protein half-life in vivo [6] [h] | total protein half-life in vivo [7] [h] | total protein half-life in vivo [8] [h] | total protein half-life in vivo [9] [h] | total protein half-life in vivo [10] [h] | total protein half-life in vivo [11] [h] | total protein half-life in vivo [12] [h] |
| --- | --- | --- | --- | --- | --- | --- | --- | --- | --- | --- | --- | --- |
| MRNHRISLQDIATLAGVTKMTVSRYIRSPKKVAKETGERIAKIMEEINYIPNRAPGMLLNAQSYTLGILIPSFQNQLFADILAGIESVTSEHNYQTLIANYNYDRDSEEESVINLLSYNIDGIILSEKYHTIRTVKFLRSATIPVVELMDVQGERLDMEVGFDNRQAAFDMVCTMLEKRVRHKILYLGSKDDTRDEQRYQGYCDAMMLHNLSPLRMNPRAISSIHLGMQLMRDALSANPDLDGVFCTNDDIAMGALLLCRERNLAVPEQISIAGFHGLEIGRQMIPSLASVITPRFDIGRMAAQMLLSKIKNNDHNHNTVDLGYQIYHGNTL | 6.39 ± 1.7 | 0.548 | 1.1 |  |  |  |  |  |  |  |  |  |
| MELIEKHVSFGGWQNMYRHYSQSLKCEMNVGVYLPPKAANEKLPVLYWLSGLTCNEQNFITKSGMQRYAAEHNIIVVAPDTSPRGSHVADADRYDLGQGAGFYLNATQAPWNEHYKMYDYIRNELPDLVMHHFPATAKKSISGHSMGGLGALVLALRNPDEYVSVSAFSPIVSPSQVPWGQQAFAAYLAENKDAWLDYDPVSLISQGQRVAEIMVDQGLSDDFYAEQLRTPNLEKICQEMNIKTLIRYHEGYDHSYYFVSSFIGEHIAYHANKLNMR | 7.46 | 2.74 ± 0.72 | 6.87 | 4.61 | 2.58 | 7.26 ± 1 | 10.9 |  |  |  |  |  |
| MSLAKASLWTAASTLVKIGAGLLVGKLLAVSFGPAGLGLAANFRQLITVLGVLAGAGIFNGVTKYVAQYHDNPQQLRRVVGTSSAMVLGFSTLMALVFVLAAAPISQGLFGNTDYQGLVRLVALVQMGIAWGNLLLALMKGFRDAAGNALSLIVGSLIGVLAYYVSYRLGGYEGALLGLALIPALVVIPAAIMLIKRGVIPLSYLKPSWDNGLAGQLSKFTLMALITSVTLPVAYIMMRKLLAAQYSWDEVGIWQGVSSISDAYLQFITASFSVYLLPTLSRLTEKRDITREVVKSLKFVLPAVAAASFTVWLLRDFAIWLLLSNKFTAMRDLFAWQLVGDVLKVGAYVFGYLVIAKASLRFYILAEVSQFTLLMVFAHWLIPAHGALGAAQAYMATYIVYFSLCCGVFLLWRRRA [P0AAA7] |  |  |  |  |  |  |  | 5.48 |  |  |  |  |
| MRVVILGSGVVGVASAWYLNQAGHEVTVIDREPGAALETSAANAGQISPGYAAPWAAPGVPLKAIKWMFQRHAPLAVRLDGTQFQLKWMWQMLRNCDTSHYMENKGRMVRLAEYSRDCLKALRAETNIQYEGRQGGTLQLFRTEQQYENATRDIAVLEDAGVPYQLLESSRLAEVEPALAEVAHKLTGGLQLPNDETGDCQLFTQNLARMAEQAGVKFRFNTPVDQLLCDGEQIYGVKCGDEVIKADAYVMAFGSYSTAMLKGIVDIPVYPLKGYSLTIPIAQEDGAPVSTILDETYKIAITRFDNRIRVGGMAEIVGFNTELLQPRRETLEMVVRDLYPRGGHVEQATFWTGLRPMTPDGTPVVGRTRFKNLWLNTGHGTLGWTMACGSGQLLSDLLSGRTPAIPYEDLSVARYSRGFTPSRPGHLHGAHS [P0A6J5] | 2.86 ± 0.088 | 1.01 ± 0.16 | 2.68 ± 0.58 | 2.06 | 1.95 ± 0.12 | 1.65 ± 0.11 | 4.77 ± 0.97 | 2.27 ± 0.23 | 1.88 ± 0.14 | 2.16 ± 0.24 | 2.04 ± 0.17 | 3.35 ± 0.27 |
| MDFFSVQNILVHIPIGAGGYDLSWIEAVGTIAGLLCIGLASLEKISNYFFGLINVTLFGIIFFQIQLYASLLLQVFFFAANIYGWYAWSRQTSQNEAELKIRWLPLPKALSWLAVCVVSIGLMTVFINPVFAFLTRVAVMIMQALGLQVVMPELQPDAFPFWDSCMMVLSIVAMILMTRKYVENWLLWVIINVISVVIFALQGVYAMSLEYIILTFIALNGSRMWINSARERGSRALSH [P0AFK2] | 6.22 | 3.29 ± 0.33 | 11.8 ± 2.2 | 5.58 ± 0.22 | 5.5 ± 0.096 | 6.14 ± 0.31 |  | 6.07 ± 0.39 | 6.15 ± 0.15 | 6.54 | 6.05 | 11.5 ± 3 |
| MIVKRPVSASLARAFFYIVLLSILSTGIALLTLASSLRDAEAINIAGSLRMQSYRLGYDLQSGSPQLNAHRQLFQQALHSPVLTNLNVWYVPEAVKTRYAHLNANWLEMNNRLSKGDLPWYQANINNYVNQIDLFVLALQHYAERKMLLVVAISLAGGIGIFTLVFFTLRRIRHQVVAPLNQLVTASQRIEHGQFDSPPLDTNLPNELGLLAKTFNQMSSELHKLYRSLEASVEEKTRDLHEAKRRLEVLYQCSQALNTSQIDVHCFRHILQIVRDNEAAEYLELNVGENWRISEGQPNPELPMQILPVTMQETVYGELHWQNSHVSSSEPLLNSVSSMLGRGLYFNQAQKHFQQLLLMEERATIARELHDSLAQVLSYLRIQLTLLKRSIPEDNATAQSIMADFSQALNDAYRQLRELLTTFRLTLQQADLPSALREMLDTLQNQTSAKLTLDCRLPTLALDAQMQVHLLQIIREAVLNAMKHANASEIAVSCVTAPDGNHTVYIRDNGIGIGEPKEPEGHYGLNIMRERAERLGGTLTFSQPSGGGTLVSISFRSAEGEESQLM | 7.015 ± 0.027 |  | 12.6 ± 0.26 | 6.24 ± 0.29 | 5.91 ± 0.37 | 6.73 ± 0.72 | 11.7 ± 2.1 | 5.97 ± 0.28 | 6.09 ± 0.081 | 6.03 ± 0.085 | 6.0563 ± 0.0037 |  |
| MGEISITKLLVVAALVVLLFGTKKLRTLGGDLGAAIKGFKKAMNDDDAAAKKGADVDLQAEKLSHKE [P0A843] | 1.78 ± 1 | 0.833 ± 0.13 | 1.3 ± 0.34 | 1.01 ± 0.26 | 1.05 ± 0.24 | 0.983 | 1.59 ± 0.77 | 0.79 | 1.57 ± 0.29 | 1.48 ± 0.19 | 1.79 | 2.14 ± 0.98 |
| MRTLLAILLFPLLVQAAGEGMWQASSVGITLNHRGESMSSAPLSTRQPASGLMTLVAWRYQLIGPTPSGLRVRLCSQSRCVELEGQSGTTVAFSGIAAAEPLRFIWEVPGGGRLIPPLKVQRNEVIVNYR |  |  | 8.78 ± 2.5 |  |  | 4.74 |  |  |  |  |  |  |
| MIQYLNVFFYDIYPYICATVFFLGSWLRYDYGQYTWRASSSQMLDKRGMVIWSNLFHIGILGIFFGHLFGMLTPHWMYAWFLPVAAKQLMAMVLGGICGVLTLIGGAGLLWRRLTNQRVRATSTTPDIIIMSILLIQCLLGLSTIPFSAQYPDGSEMMKLVGWAQSIVTFRGGSSEMLNGVAFVFRLHLVLGMTIFLLFPFTRLVHVWSAPFEYFTRRYQIVRSRR [P0AF32] | 6.36 ± 0.3 |  | 11 | 5.71 ± 0.33 |  | 6.54 | 11.3 ± 1.8 |  |  | 7.27 ± 0.96 |  | 10.7 ± 1.9 |
| MFLVDSHCHLDGLDYESLHKDVDDVLAKAAARDVKFCLAVATTLPGYLHMRDLVGERDNVVFSCGVHPLNQNDPYDVEDLRRLAAEEGVVALGETGLDYYYTPETKVRQQESFIHHIQIGRELNKPVIVHTRDARADTLAILREEKVTDCGGVLHCFTEDRETAGKLLDLGFYISFSGIVTFRNAEQLRDAARYVPLDRLLVETDSPYLAPVPHRGKENQPAMVRDVAEYMAVLKGVAVEELAQVTTDNFARLFHIDASRLQSIR [P0AFQ7] | 4.81 ± 0.12 | 2.46 ± 0.053 | 9.89 ± 2.7 | 3.76 ± 0.27 | 2.97 ± 0.21 | 4.73 ± 0.61 | 7.55 ± 0.79 | 4.39 ± 0.14 | 3.33 ± 0.04 | 3.06 ± 0.22 | 3.63 ± 0.31 | 5.34 ± 1.1 |
